The record followed here is PMC4166925.

pKd: −log10 of the molar value.

Series [1] addresses T1, PmTbr T-box (Patiria miniata) (UniProt A0A075Q982).
T1 sequence: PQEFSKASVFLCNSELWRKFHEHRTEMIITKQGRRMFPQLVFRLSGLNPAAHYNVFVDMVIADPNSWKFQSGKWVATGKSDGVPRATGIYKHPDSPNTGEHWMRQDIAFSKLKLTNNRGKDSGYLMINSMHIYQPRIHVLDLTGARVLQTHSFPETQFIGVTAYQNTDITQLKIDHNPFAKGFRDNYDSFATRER

Series [2] has as its target T2, SpTbr T-box (Strongylocentrotus purpuratus) (UniProt A0A7M7RD59).
T2 sequence: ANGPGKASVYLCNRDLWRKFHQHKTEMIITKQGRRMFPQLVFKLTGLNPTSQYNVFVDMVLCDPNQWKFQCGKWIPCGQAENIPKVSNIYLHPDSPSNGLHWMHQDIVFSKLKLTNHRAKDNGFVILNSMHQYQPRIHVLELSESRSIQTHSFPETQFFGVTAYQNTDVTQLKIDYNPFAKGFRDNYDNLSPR

For series [3], the system named is SpTbr DNA-binding domain (T-box) (Strongylocentrotus purpuratus). In words: SPR (steady state). The settings on record: SPR running buffer 50 mM Mops (pH not given; protein buffer 20 mM Mops pH 7.5), 150 mM NaCl, 1 mM DTT, 0.01% P20, 20 °C, 30 µl/min; streptavidin-coated CM5 ….
The subject of series [4] is PmTbr DNA-binding domain (T-box) (Patiria miniata). In words: SPR (steady state). The settings on record: SPR running buffer 50 mM Mops (pH not given; protein buffer 20 mM Mops pH 7.5), 150 mM NaCl, 1 mM DTT, 0.01% P20, 20 °C, 30 µl/min; streptavidin-coated CM5 ….

For “AGGTGTGA (double strand) [8-mer AGGTGTGA]”, the results for the binding signal (PBM E-score (-0.5 to 0.5)) in series [1] and in series [2] were 0.499 and 0.498, respectively.
Regarding “GACACCTC (double strand) [8-mer GACACCTC]”, the binding signal (PBM E-score (-0.5 to 0.5)) in series [1] was 0.49.
As for “GGTGTGAA (double strand) [8-mer GGTGTGAA]”, the binding signal (PBM E-score (-0.5 to 0.5)) in series [1] was found to be 0.496; in series [2], 0.497.
Taken in the same sequence, the figures for “CTCACACC (double strand) [8-mer CTCACACC]” were 0.491 and 0.494.
In series [1], “AACACCTC (double strand) [8-mer AACACCTC]” showed a binding signal (PBM E-score (-0.5 to 0.5)) of 0.491.
For the sequence “CTTTAGGTGACAAACGGTTTTCCGTTTGTCACCTAAAG [PmTbr Secondary Site Hairpin]”, the values for the pKd in series [3] and in series [4] were 6.00 and 6.35, respectively.
“AGGTGCGA (double strand) [8-mer AGGTGCGA]”: the binding signal (PBM E-score (-0.5 to 0.5)) in series [1] turned out to be 0.497; in series [2] it was 0.496.
Taken in the same sequence, the figures for “AGGTGTCA (double strand) [8-mer AGGTGTCA]” were 0.495 and 0.494.
On to “AGGTGTCG (double strand) [8-mer AGGTGTCG]”, for which, in series [1], the binding signal (PBM E-score (-0.5 to 0.5)) was determined as 0.492.
The same measure, in the same setting: for “ACACCTCG (double strand) [8-mer ACACCTCG]” the value was 0.49.
“AAGGTGTC (double strand) [8-mer AAGGTGTC]” displayed a binding signal (PBM E-score (-0.5 to 0.5)) in series [2] of 0.487.
For “AGGTGTTA (double strand) [8-mer AGGTGTTA]”, the values for the binding signal (PBM E-score (-0.5 to 0.5)) in series [1] and in series [2] were 0.496 and 0.494, respectively.
As to “CACACCTC (double strand) [8-mer CACACCTC]”, the binding signal (PBM E-score (-0.5 to 0.5)) in series [1] and in series [2] was 0.49 throughout.
On to “ACACCTCC (double strand) [8-mer ACACCTCC]”, for which the binding signal (PBM E-score (-0.5 to 0.5)) in series [1] was 0.49.
As to “GGGTGTGA (double strand) [8-mer GGGTGTGA]”, the binding signal (PBM E-score (-0.5 to 0.5)) in series [1] was determined as 0.492; in series [2], 0.493.
“AGTGTGAA (double strand) [8-mer AGTGTGAA]”: the binding signal (PBM E-score (-0.5 to 0.5)) in series [2] stood at 0.489.
“CTTTAGGTGTGAAACGGTTTTCCGTTTCACACCTAAAG [Primary Tbr Site Hairpin]”: the results for the pKd in series [3] and in series [4] were 6.86 and 6.97, respectively.
For “CTTTAGGTGTCGAACGGTTTTCCGTTCGACACCTAAAG [MmEomes Secondary Hairpin]”, in that order: 6.05 and 6.14.
As for “GGTGCGAA (double strand) [8-mer GGTGCGAA]”, the binding signal (PBM E-score (-0.5 to 0.5)) in series [2] came out at 0.487.
In the case of “GTGTGAAA (double strand) [8-mer GTGTGAAA]”, the binding signal (PBM E-score (-0.5 to 0.5)) in series [1] and in series [2] was 0.49 throughout.
For the sequence “AGGTGCTA (double strand) [8-mer AGGTGCTA]”, the binding signal (PBM E-score (-0.5 to 0.5)) in series [1] is 0.491.
As for “GTGTGAAC (double strand) [8-mer GTGTGAAC]”, the binding signal (PBM E-score (-0.5 to 0.5)) in series [2] was determined as 0.493.
Still for that read-out and setting: the result for “AAGTGTGA (double strand) [8-mer AAGTGTGA]” reads 0.488; that for “ATCACACC (double strand) [8-mer ATCACACC]”, 0.488.

One may read the pKd as the negative decadic logarithm of the Kd, by convention in mol/L. A high value points to a small Kd.
